According to patent US20240109859:

Target: T1, IRF3 wild-type (UniProt Q14653 Q14653:1-427)
T1 sequence: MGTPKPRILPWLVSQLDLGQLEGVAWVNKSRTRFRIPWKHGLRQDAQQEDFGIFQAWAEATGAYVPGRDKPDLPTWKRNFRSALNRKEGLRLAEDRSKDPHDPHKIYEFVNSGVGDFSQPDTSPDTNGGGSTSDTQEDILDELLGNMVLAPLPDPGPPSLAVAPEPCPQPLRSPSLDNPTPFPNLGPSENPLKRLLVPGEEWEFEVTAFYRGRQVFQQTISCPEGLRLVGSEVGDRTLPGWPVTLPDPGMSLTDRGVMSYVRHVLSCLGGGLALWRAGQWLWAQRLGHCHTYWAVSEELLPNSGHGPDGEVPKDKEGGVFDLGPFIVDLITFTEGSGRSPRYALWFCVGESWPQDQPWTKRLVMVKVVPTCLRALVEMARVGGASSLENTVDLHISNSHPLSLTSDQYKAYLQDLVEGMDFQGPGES
Test: EMSA; 2.5 nM probe, 10 mM Tris pH 7.5, 50 mM NaCl, 2 mM DTT, room temperature 45 min; cold probe competition
Settings: tags: Flag, expressed in HEK293T; label: 32P
Protocol: Electrophoresis Mobility Shift Assay (EMSA). Flag-IRF3-WT and Flag-IRF3-N85D were purified from HEK293T cells. Binding reactions were carried out in 20 μl volumes containing: 2.5 nM P32 labeled DNA probe targeting IFN-β promoter (forward: […] (SEQ ID NO: 41); reverse: […]) (SEQ ID NO: 42); 10 mM Tris pH 7.5; 50 mM NaCl; 2 mM DTT and indicated purified Flag-IRF3-WT or Flag-IRF3-N85D. Unlabeled probe (cold probe) was used for competition assay. Reactions were incubated at room temperature for 45 min, and resolved in 6% polyacrylamide gels (29:1 crosslinking) with 0.5×TBE running buffer at […] on ice until the loading dye front reached the bottom of the gel. Gels were dried and analyzed using phosphorimaging instrumentation.

B1: IFN-beta promoter probe (dsDNA)
DNA 1: GCACCGCTAACCGAAACCGAAACTGTGC
DNA 2: GCACAGTTTCGGTTTCGGTTAGCGGTGC
- binding result: binds
